Assay [1] concerns the target T1, SARS-CoV-2 Spike S1-His (SARS-CoV-2, UniProt P0DTC2 16-685). Kind of assay: Octet BLI, IgG, monovalent.
In a further assay the target is T2, MERS-CoV [change] (MERS-CoV, UniProt K9N5Q8 18-725).
T2 sequence: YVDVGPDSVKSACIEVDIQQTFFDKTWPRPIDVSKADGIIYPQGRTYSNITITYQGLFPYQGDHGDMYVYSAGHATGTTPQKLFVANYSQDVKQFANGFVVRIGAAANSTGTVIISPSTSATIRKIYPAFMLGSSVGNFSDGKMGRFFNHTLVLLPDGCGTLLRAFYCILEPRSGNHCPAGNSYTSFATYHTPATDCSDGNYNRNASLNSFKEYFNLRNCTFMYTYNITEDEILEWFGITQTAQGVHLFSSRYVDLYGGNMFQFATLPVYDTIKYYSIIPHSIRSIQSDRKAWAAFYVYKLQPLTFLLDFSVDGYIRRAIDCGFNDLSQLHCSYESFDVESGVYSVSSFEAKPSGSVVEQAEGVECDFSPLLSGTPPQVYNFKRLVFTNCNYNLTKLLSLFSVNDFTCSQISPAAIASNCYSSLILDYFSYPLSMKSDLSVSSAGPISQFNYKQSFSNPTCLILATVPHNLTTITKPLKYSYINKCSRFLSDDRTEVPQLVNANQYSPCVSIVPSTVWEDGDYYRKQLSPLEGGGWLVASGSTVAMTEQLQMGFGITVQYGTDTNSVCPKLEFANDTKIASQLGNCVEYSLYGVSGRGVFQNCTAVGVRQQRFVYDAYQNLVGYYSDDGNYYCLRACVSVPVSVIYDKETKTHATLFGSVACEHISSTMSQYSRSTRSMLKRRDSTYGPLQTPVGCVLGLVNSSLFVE
Put plainly: Octet BLI, IgG, monovalent.

Assay [2] has as its target T3, SARS-CoV1 Spike [change] (SARS-CoV-1, UniProt P59594 14-667). Put plainly: Octet BLI, IgG, monovalent. For orientation: In BLI a coated tip is dipped into the sample, and binding shifts an interference pattern.
Another assay deals with SARS-CoV-2 S Trimer (SARS-CoV-2, UniProt P0DTC2 16-1213). Put plainly: Octet BLI, IgG, avid.
Assay [3] concerns the target T4, SARS-CoV-2 wild type spike protein (on reporter virus particles) (SARS-CoV-2, UniProt P0DTC2 14-1273). Kind of assay: cell-based or functional assay.
The target in assay [4] is T1, SARS-CoV-2 Spike S1-His. Kind of assay: Octet BLI, IgG, monovalent. This is another data set of the same source.
In assay [5] the target is T3, SARS-CoV1 Spike [change]. Put plainly: Octet BLI, IgG, monovalent. The source holds these as a separate data set.
The target in assay [6] is T4, SARS-CoV-2 wild type spike protein (on …). Kind of assay: cell-based or functional assay. This is another data set of the same source.

Where two headings read alike, the source gives them in different places.

B1: A-14 (antibody, V domains shown)
VH: EVQLVESGGGVVQPGRSLRLSCAASGFTFSTYGMHWVRQAPGKGLEWVAVIWYDGSNKYYADSVKGRFTISRDNSKNTLYLQMNSLRAEDTAVYYCARSVDGDYLEYFQHWGQGTLVTVSS
VL: QPVLTQPRSVSGSPGQSVTISCTGTSSDVGGYNYVSWYQQHPGKAPKLMIYDVSKRPSGVPDRFSGSKSGNTASLTISGLQAEDEADYYCCSYAGGYTNYVFGTGTKLTVL
By Kd is commonly meant the equilibrium constant for the complex coming apart. Read a high Kd as a looser complex. For the molecule B1, the Kd amounted to 26.6 nM in the assay with SARS-CoV-2 Spike S1-His [1] and 2.09 nM with SARS-CoV-2 S Trimer. Moreover, the binding result with MERS-CoV [change] and in the assay with SARS-CoV1 Spike [change] [2] was “no binding” each time. Also, in assay [3], the “PsV Neut Assay IC50” value was 1.61 nM.

B2: A-3 (antibody, V domains shown)
VH: EVQLLESGPGLVKPSETLSLTCTVSGGSINSRSYYWGWIRQPPGKGLEWIGSIYYSGSTYYNPSLKSRVTISVDTSKNQFSLKLSSVIAADTAVYFCARLEQWELPGGWFDPWGQGTLVTVSS
VL: NFMLTQPHSVSESPGKTVTISCTRSSGSIASNYVQWYQQRPGSAPTTVIYEDNQRPSGVPDRFSGSIDISSNSASLTISGLKTEDEADYSCQSSDSSNVVFGGGTKLTVL
For the molecule B2, the Kd is 37.4 nM with SARS-CoV-2 Spike S1-His [1] and 0.945 nM with SARS-CoV-2 S Trimer. Also, the binding result in the assay with MERS-CoV [change] and with SARS-CoV1 Spike [change] [2] was “no binding” in each case. Also, the “PsV Neut Assay IC50” value in assay [3] was found to be 0.419 nM.

B3: A-4 (antibody, V domains shown)
VH: EVQLVESGGGLIQPGGSLTLSCAASGFTVSSNYMNWVRQAPGKGLEWVSVIYSGGSTYYADSVKGRFTISRDNSKNTLYLQMNSLRAEDTAVYYCAREVYSYFDYWGQGTLVTVSS
VL: DIQLTQSPSFLSASVGDRVTITCRASQGISSYLAWYQQKPGKAPKLLIYAASTLQSGVPSRFSGSGSGTEFTLTISRLQPEDLATYYCQQLNSYPPHTFGQGAKLEIK
Take B3: the binding result with MERS-CoV [change] and with SARS-CoV1 Spike [change] [2] was “no binding” throughout. Besides, binding with SARS-CoV-2 S Trimer was characterised by a dissociation constant (Kd) of 1.97 nM. Further, the “PsV Neut Assay IC50” value in assay [3] was found to be 2.26 nM.

B4: A-20 (antibody, V domains shown)
VH: QVQLVESGGGVVQPGRSLRLSCAASGFTFSNFAMHWVRQAPGKGLEWVAVILYDGINKYYADSVKGRFTISRGNSKNTLSLQMNSLRAEDTAVYYCARAQNYYDRSGTLQLDAFDIWGQGTLVTVSS
VL: AIQMTQSPSSLSASVGDRVTITCRASQGIRNDLGWYQQKPGKAPKLLIYAASSLQSGVPSRFSGSGSGTDFTLTISSLQPEDFATYYCLQDYNYPLTFGGGTKVEIK
As to B4, the Kd was found to be 3.95 nM with SARS-CoV-2 Spike S1-His [4] and 22 nM with SARS-CoV1 Spike [change] [5]. In assay [6], the “WT PsV IC50” value was found to be 2.45 nM.

B5: A-20.1 (antibody, V domains shown)
VH: QVQLVESGGGVVQPGRSLRLSCAASGFTFSNFAMHWVRQAPGKGLEWVAVILYDGINKYYADSVKGRFTISRGNSKNTLSLQMNSLRAEDTAVYYCARAQNYYDRSGTLQLDAFDIWGQGTLVTVSS
VL: AIQMTQSPSSLSASVGDRVTITCVASQGIRNDLGWYQQKPGKAPKLLIYEASSLESGVPSRFSGSGSGTDFTLTISSLQPEDFATYYCLQDYNYPLTFGGGTKVEIK
Regarding B5, the Kd with SARS-CoV1 Spike [change] [5] is 5.29 nM.

B6: A-12 (antibody, V domains shown)
VH: EVQLLESGGGLVQPGGSLRLSCAVSGLTVSSNYMSWVRQAPGKGLEWVSLIYSGGSTYYADSVKGRFTISRDNSKNTLYLQMNSLRAEDTAVYYCARGELGIPYGMDVWGQGTTVTVSS
VL: QSVLTQPPSVSAAPGQKVTISCSGGSSNVGDNFVSWYQQLPGTAPKLLIYDNNRRPSGIPDRFSGSKSGTSATLGITGLQTGDEADYYCGTWDSSLSAGVFGGGTKVTVL
B6: the results for the Kd with SARS-CoV-2 Spike S1-His [1] and in the assay with SARS-CoV-2 S Trimer were 2.57 nM and 1.11 nM, respectively. Moreover, the binding result with MERS-CoV [change] and with SARS-CoV1 Spike [change] [2] was “no binding” in each case. The “PsV Neut Assay IC50” value in assay [3] came out at 0.404 nM.

B7: A-17 (antibody, V domains shown)
VH: EVQLQESGPGLVKPSETLSLTCTVSGGSISSYYWSWIRQPPGKGLEWIGYIYYSGSTNYNPSLKSRVTISVGTSKNQFSLKLSSVTAADTAVYYCAKSASDEPPPSTAAAGSHYYYYGMDVWGQGTTVTVSS
VL: EIVMTQSPLSLPVTPGEPASISCRSSQSLLHSNGYNYLDWYLQKPGQSPHVLIYLGSNRASGVPDRFSGSGSGTDFTLKISRVEAEDVGVYYCMQALQTPNTFGQGTKLEIK
Consider B7, for which, in the assay with SARS-CoV-2 Spike S1-His [1], the Kd was 1.58 nM. Moreover, the binding result with MERS-CoV [change] and with SARS-CoV1 Spike [change] [2] was “no binding” throughout. Further, the “PsV Neut Assay IC50” value in assay [3] is 0.66 nM.

B8: A-15 (antibody, V domains shown)
VH: QVQLVQSGAEVKKPGASVKVSCKASGYTSSSYYMHWVRQAPGQGPEWMGIINPGGTSTSYAQKFQGRVTMTRDTSTSTVYMELSSLRSEDTAVYYCAIGYCSTTSCRWGDAFDIWGQGTMVTVSS
VL: DIQVTQSPSSLSASVGDRVTITCRASQSISSYLNWYQQKPEKAPNLLIYAASSLQSGVPSRFSGSGSGTDFTLTISSLQPEDFATYYCQQSSTTPPTFGQGTKVEIK
As to B8, the values for the Kd with SARS-CoV-2 Spike S1-His [1] and with SARS-CoV-2 S Trimer were 7.82 nM and 1.62 nM, respectively. In addition, the binding result with MERS-CoV [change] and with SARS-CoV1 Spike [change] [2] was “no binding” in each case. Besides, in assay [3], the “PsV Neut Assay IC50” value is 1.44 nM.

B9: A-5 (antibody, V domains shown)
VH: QVQLVESGGGLIQPGESLRLSCAASEFIVSRNYMSWVRQAPGKGLEWVSVIYSGGNTYYADSVKGRFTISRDNSKNTLYLQMNSLRAEDTAVYYCARDLRGPGCFDFWGQGTTVTVSS
VL: DIQVTQSPSSLSASVGDRVTITCQASQDISNFLNWYQQKPGKAPKLLIYDASNLETGVPSRFSASGSGTEFTFTISSLQPEDIATYYCQQYDNLRVTFGGGTKLEIK
As to B9, the Kd was 37.3 nM in the assay with SARS-CoV-2 Spike S1-His [1] and 2.41 nM with SARS-CoV-2 S Trimer. For the same molecule, the binding result with MERS-CoV [change] and in the assay with SARS-CoV1 Spike [change] [2] was “no binding” each time. Besides, in assay [3], the “PsV Neut Assay IC50” value stood at 1.1 nM.

B10: A-7 (antibody, V domains shown)
VH: EVQLVESGAEVRKPGASVKVSCKASGYTFTFYYIHWVRQAPGQGLEWMGWISPISGATNYAQTFQGRVTMTRDTSITTAYMELSSLTSDDTAVYYCAREKYYDSSGSSDYWGQGTLVTVSS
VL: QPVLTQPPSVSAAPGQNVTIFCSGSSSNIGNNYVSWYQQLPGPAPKLLIYENNKRPSGIPDRFSGSKSGTSATLGITGLQTGDEADYYCGTWESSLSAPRVFGSGTKLTVL
On to B10, for which the Kd in the assay with SARS-CoV-2 Spike S1-His [1] amounted to 2.71 nM; with SARS-CoV-2 S Trimer it was 0.804 nM. Moreover, the binding result in the assay with MERS-CoV [change] and in the assay with SARS-CoV1 Spike [change] [2] was “no binding” each time. In addition, the “PsV Neut Assay IC50” value in assay [3] came out at 0.0922 nM.

B11: A-21.1 (antibody, V domains shown)
VH: EVQLVESGGGLVQPGGSLRLSCAASGFTFRRYWMHWVRQAPGKGLVWVSRINSDGSSTTYADSVKGRFTISRDNAKNTLYLQMNSLRAEDTAVYYCARELYYYDSRGFEEGEGWFDPWGQGTLVTVSS
VL: QSVLTQPPSVSGAPGQRVTISCTGISSNIGAGYDVHWYQQLPGTAPKLLIYGNSNRPSGVPDRFSASKSGTSAPLAITGLQAEDEADYYCQSSDRSLSGSVFGTGTKVTVL
For B11, binding with SARS-CoV1 Spike [change] [5] was put at a Kd of 6.57 nM. In assay [6], the “WT PsV IC50” value was 1.75 nM.

B12: A-23.3 (antibody, V domains shown)
VH: EVQLVESGGGLVQPGRSLRLSCAASGFTFDDYAMHWVRQAPGKGLEWVSGTSWNSGTIGYADSVKGRFIISRDNAKNSLYLQMNSLRGEDMALYYCVKDRKREDPSLGGMDVWGQGTTVTVSS
VL: SYVLTQPPSVSVAPGQTARITCGGNNIGSKSVHWYQQKPGQAPVLVVYDDTDRPSGIPERFSGSNSGNTATLTISRVEAGDEADYYCQVWDSSSDDYVFGTGTKVTVL
For the molecule B12, in the assay with SARS-CoV1 Spike [change] [5], the binding result is reported as “no binding”.

B13: A-8 (antibody, V domains shown)
VH: EVQLLESGGGLVQPGGSLRLSCAASGFTFSSYAMSWVRQAPGKGLEWVSAISGSGNSTSYADSVKGRFTLSRDNSKNTLYLQMNSLRAEDTAIYYCAKGLGTRSFNWGAFDYWGQGTLVTVSS
VL: DIRVTQSPSSLSASVGDRVTITCRASQGISYSLAWYQQKPGKAPKLLLYAASNLESGVPSRFSGSGSGTDYTLTVSSLQPEDFATYYCQQYYSTPWTFGQGTKVEIK
For the molecule B13, the values for the Kd with SARS-CoV-2 Spike S1-His [1] and with SARS-CoV-2 S Trimer were 0.477 nM and 1.53 nM, respectively. Moreover, the binding result with MERS-CoV [change] and with SARS-CoV1 Spike [change] [2] was “no binding” in each case. Moreover, in assay [3], the “PsV Neut Assay IC50” value was found to be 0.846 nM.

The record behind these values is patent US20260217797A1 (Takeda / Millennium, published 2026).
